Common to all, as to conditions: both partners purified
The target in assay [1] is T1, GST-fibulin-1C (UniProt P23142-4 33-683).
T1 construct: fibulin-1C, amino acids 33-683, cloned into pGEX-4T3; the C variant has 683 amino acids; also called recombinant GST-fibulin-1C; source: E. coli, purified (glutathione-sepharose, Superdex 200)
T1 sequence (looked up): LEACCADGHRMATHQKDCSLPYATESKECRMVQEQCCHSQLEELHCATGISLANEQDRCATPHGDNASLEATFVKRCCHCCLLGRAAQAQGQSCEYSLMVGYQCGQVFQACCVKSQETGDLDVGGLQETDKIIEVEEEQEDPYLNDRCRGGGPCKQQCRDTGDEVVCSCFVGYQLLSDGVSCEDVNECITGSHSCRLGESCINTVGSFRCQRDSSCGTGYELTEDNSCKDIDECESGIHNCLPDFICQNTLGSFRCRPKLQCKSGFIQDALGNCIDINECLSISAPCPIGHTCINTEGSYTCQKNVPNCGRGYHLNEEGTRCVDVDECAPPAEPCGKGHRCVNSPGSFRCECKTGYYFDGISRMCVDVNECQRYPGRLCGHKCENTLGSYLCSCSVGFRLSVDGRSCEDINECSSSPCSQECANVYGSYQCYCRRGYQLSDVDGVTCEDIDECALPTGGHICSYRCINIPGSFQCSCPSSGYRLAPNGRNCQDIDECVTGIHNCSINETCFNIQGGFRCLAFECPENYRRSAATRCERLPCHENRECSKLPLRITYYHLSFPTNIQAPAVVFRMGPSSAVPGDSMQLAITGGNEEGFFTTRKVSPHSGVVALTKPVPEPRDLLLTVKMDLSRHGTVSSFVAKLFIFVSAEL
In words: SPR; reticulocalbin immobilised; buffer with EDTA (10 mM Hepes, 150 mM NaCl, 20 mM EDTA and 0.005% Tween 20 pH 7.4).

In assay [2] the target is T2, recombinant GST-grp75 (AAH00478.1) (human, UniProt P38646 47-679).
T2 construct: also called glucose regulated protein 75; mortalin; source: bought: Abnova (Taipei, Taiwan)
T2 sequence (P38646 47-679): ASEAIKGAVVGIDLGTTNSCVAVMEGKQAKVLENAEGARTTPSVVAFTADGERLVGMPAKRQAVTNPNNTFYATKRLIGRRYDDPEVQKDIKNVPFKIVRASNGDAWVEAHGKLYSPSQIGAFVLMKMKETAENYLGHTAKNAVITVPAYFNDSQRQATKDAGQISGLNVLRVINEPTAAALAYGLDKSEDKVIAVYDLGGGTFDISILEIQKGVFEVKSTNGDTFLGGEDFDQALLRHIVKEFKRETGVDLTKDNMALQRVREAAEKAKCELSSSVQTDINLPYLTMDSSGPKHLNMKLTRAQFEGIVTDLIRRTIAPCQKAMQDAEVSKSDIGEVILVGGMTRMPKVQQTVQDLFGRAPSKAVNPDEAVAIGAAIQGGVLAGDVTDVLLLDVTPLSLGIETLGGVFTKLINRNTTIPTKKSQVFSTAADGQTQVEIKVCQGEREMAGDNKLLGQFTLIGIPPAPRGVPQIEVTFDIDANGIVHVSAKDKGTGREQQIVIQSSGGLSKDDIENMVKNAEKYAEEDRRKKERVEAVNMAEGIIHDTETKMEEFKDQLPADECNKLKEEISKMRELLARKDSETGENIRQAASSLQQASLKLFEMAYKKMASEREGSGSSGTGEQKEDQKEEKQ
In words: SPR; Biacore 2000/3000, CM5 chip, calumenin, GST-calumenin, reticulocalbin or GST amine-coupled; 25°C; 10 mM HEPES, 150 mM NaCl, 5 mM CaCl2, 1 mM EGTA, 0.005% Tween 20, pH 7.4; 1:1 Langmuir model; apparent KD from koff/kon. (In general: In SPR one partner is held on a chip, and binding of the other changes the refractive index at the surface.)

Assay [3] has as its target T1, GST-fibulin-1C. The assay is described as above.
Assay [4] has as its target T3, C1 esterase inhibitor (commercial, Calbiochem) (UniProt P05155 23-500).
T3 construct: source: bought: Calbiochem
T3 sequence (looked up): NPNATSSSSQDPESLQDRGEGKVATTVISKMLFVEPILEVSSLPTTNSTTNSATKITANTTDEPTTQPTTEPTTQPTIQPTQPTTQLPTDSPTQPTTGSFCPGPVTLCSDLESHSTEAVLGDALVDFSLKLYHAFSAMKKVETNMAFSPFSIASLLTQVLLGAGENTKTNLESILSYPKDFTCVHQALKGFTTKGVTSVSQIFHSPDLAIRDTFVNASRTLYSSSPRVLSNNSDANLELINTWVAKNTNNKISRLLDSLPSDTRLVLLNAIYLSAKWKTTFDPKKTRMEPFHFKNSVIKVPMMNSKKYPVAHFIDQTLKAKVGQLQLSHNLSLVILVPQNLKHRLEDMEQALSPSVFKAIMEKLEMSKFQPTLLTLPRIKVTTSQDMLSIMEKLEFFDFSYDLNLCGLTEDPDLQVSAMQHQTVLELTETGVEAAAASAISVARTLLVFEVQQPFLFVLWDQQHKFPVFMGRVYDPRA
The assay is described as above.

B1: recombinant reticulocalbin (natural protein)
chain: KPTVRKERVVRPDSELGERPPEDNQSFQYDHEAFLGKEDSKTFDQLSPDESKERLGKIVDRIDSDGDGLVTTEELKLWIKRVQKRYIYDNVAKVWKDYDRDKDEKISWEEYKQATYGYYLGNPAEFHDSSDHHTFKKMLPRDERRFKASDLDGDLTATREEFTAFLHPEEFEHMKEIVVLETLEDIDKNGDGFVDQDEYIADMFSHEDNGPEPDWVLSEREQFNDFRDLNKDGKLDKDEIRHWILPQDYDHAQAEARHLVYESDKNKDEMLTKEEILDNWNMFVGSQATNYGEDLTKNHDEL
modifications: Expressed in E. coli as a GST fusion; GST removed with thrombin. Species and limits are not printed: mouse is inferred because the plasmid came from Dr. Ozawa, whose original reticulocalbin clone was
Consider B1, for which the Kd in assay [1] is approximately 50 nM; in assay [2], approximately 3 nM; in assay [3] it was approximately 60 nM; in assay [4] it was approximately 1000 nM.

B2: GST-calumenin (natural protein, UniProt O43852 20-315, looked up)
chain: KPTEKKDRVHHEPQLSDKVHNDAQSFDYDHDAFLGAEEAKTFDQLTPEESKERLGKIVSKIDGDKDGFVTVDELKDWIKFAQKRWIYEDVERQWKGHDLNEDGLVSWEEYKNATYGYVLDDPDPDDGFNYKQMMVRDERRFKMADKDGDLIATKEEFTAFLHPEEYDYMKDIVVQETMEDIDKNADGFIDLEEYIGDMYSHDGNTDEPEWVKTEREQFVEFRDKNRDGKMDKEETKDWILPSDYDHAEAEARHLVYESDQNKDGKLTKEEIVDKYDLFVGSQATDFGEALVRHDEF
notes: source: E. coli, purified (glutathione-sepharose, Superdex 200)
For the molecule B2, the results for the Kd in assay [3] and in assay [4] were approximately 50 nM and approximately 150 nM, respectively.

B3: recombinant calumenin (immobilised; construct not told) (natural protein, UniProt O43852 20-315, looked up)
chain: KPTEKKDRVHHEPQLSDKVHNDAQSFDYDHDAFLGAEEAKTFDQLTPEESKERLGKIVSKIDGDKDGFVTVDELKDWIKFAQKRWIYEDVERQWKGHDLNEDGLVSWEEYKNATYGYVLDDPDPDDGFNYKQMMVRDERRFKMADKDGDLIATKEEFTAFLHPEEYDYMKDIVVQETMEDIDKNADGFIDLEEYIGDMYSHDGNTDEPEWVKTEREQFVEFRDKNRDGKMDKEETKDWILPSDYDHAEAEARHLVYESDQNKDGKLTKEEIVDKYDLFVGSQATDFGEALVRHDEF
notes: calumenin; also called immobilised calumenin; source: E. coli, purified
In the case of B3, the Kd in assay [2] is approximately 7 nM.

The values above are taken from article PMC4498735, “Fibulin-1C, C1 Esterase Inhibitor and Glucose Regulated Protein 75 Interact with the CREC Proteins, Calumenin and Reticulocalbin” (PLoS ONE, 2015).
